SCF dose giving maximal proliferation (XTT-based assay), mock- and KSHV-infected DMVEC, proliferation (XTT-based assay), increase over basal proliferation, KSHV-infected DMVEC and proliferation (XTT-based assay), increase over basal proliferation, mock-infected DMVEC data for 1 substance are collected here from patent publication US20030191048A1.

The assay addresses c-Kit (CD 117) receptor tyrosine kinase on DMVEC (human) (UniProt P10721). Put plainly: cell-based or functional assay.

c-Kit (CD 117) receptor tyrosine kinase on DMVEC (human), sequence (P10721 26-976): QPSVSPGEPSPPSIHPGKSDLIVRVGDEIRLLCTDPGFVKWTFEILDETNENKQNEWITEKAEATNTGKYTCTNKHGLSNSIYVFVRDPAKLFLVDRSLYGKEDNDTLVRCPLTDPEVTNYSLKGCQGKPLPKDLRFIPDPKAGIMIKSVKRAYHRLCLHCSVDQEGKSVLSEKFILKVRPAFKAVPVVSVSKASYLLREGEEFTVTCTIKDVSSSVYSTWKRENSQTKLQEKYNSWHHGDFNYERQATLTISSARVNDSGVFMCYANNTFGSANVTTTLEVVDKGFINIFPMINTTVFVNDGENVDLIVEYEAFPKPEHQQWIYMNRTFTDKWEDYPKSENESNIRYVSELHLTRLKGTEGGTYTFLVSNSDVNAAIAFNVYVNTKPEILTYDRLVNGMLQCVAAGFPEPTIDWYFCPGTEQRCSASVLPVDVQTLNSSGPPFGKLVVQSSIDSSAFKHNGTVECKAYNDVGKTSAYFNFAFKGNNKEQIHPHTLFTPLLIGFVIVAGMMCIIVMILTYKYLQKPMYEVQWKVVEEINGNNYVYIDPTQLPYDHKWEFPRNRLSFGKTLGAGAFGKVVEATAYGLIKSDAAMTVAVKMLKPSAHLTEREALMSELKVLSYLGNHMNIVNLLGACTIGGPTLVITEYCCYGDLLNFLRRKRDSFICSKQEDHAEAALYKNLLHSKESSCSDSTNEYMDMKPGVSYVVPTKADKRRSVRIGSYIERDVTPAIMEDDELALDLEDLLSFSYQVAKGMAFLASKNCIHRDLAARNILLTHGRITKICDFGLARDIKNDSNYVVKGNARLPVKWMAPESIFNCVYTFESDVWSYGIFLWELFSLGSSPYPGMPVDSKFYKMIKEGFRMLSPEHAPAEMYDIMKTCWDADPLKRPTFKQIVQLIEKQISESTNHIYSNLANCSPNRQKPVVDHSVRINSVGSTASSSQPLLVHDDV

The substance “recombinant stem cell factor (SCF) (from UniProt P21583 26-189) (ligand)” showed an SCF dose giving maximal proliferation (XTT-based assay), mock- and KSHV-infected DMVEC of 50 to 100 ng/mL; a proliferation (XTT-based assay), increase over basal proliferation, KSHV-infected DMVEC of less than 85%; a proliferation (XTT-based assay), increase over basal proliferation, mock-infected DMVEC of less than 40%.
